We go through 41 sequences from the nanobody polyreactivity screen of Harvey et al. (2022).

This data set is described as follows: yeast display, Sf9 membrane polyspecificity reagent, FACS + sequencing; frameworks hold sequencing errors. A digest of the protocol:
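Genes from sorted yeast were amplified by colony PCR, read by MiSeq 2 × 250 sequencing and filtered on CDR length. These cells carried a synthetic nanobody library in Saccharomyces cerevisiae BJ5465 and were sorted by FACS into low and high (top ~1%) gates on anti-HA and streptavidin fluorescence. Polyreactivity is labelled according to the gate of origin.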
On to “QVQLQESGGGLVQAGGSLRLSCAASGSISADGAMGWYRQAPGKEREFAASVNWGTNTNYADSVKGRFTISRDNAKNTLYLQMNRLKPEDTAVYYCAVLPDWETRHDYWGHGTQVTVSS”, for which the “polyreactivity (PSR sort gate)” value was “low polyreactivity”.
As to “QVQLQESGGGLVQAGGSLRLSCAASGSISRYYDMGLYRQAPGKEREFVAGISGGAITYYADSVKGRFTISRDNAKNTVYLQMNSLKPVDTAVYYCAADTGVYQYHSYWGQGTQVTVSS”, the “polyreactivity (PSR sort gate)” value is on record as “low polyreactivity”.
As for “QVQLQESGGGLVQAGGSLRLSCAASGSISRYYDMGWYRQAPGKELEFVAGISGGAITYYADSVKGRFTISRDNAKNTVYLQMNSLKPEDTAVYYCAADTGVYQYHSYWGQGTQVTVSS”, the “polyreactivity (PSR sort gate)” value is “low polyreactivity”.
For “QVQLQESGGGLVQAGGSLRLSCAASGSISSRDAMGWYRQAPGKEREFVATIASGTTTYYADSVKGSFTISRDNAENTVYLQTNSLKPEDTAVYYCAAPTIQIYPFYYWGQGTQVTVSS” the value was “high polyreactivity”; for “QVQLQESGGGLVQAGGSLRLSCAASGSNFDTPTMGWYRQAPGKERELVASIAYDDNTYYADSVKGRFTISRYNAKNTVYLQMNSLKPGDTAVYYCAVTDRIYYYFVYWGQGTRVTVSS”, “high polyreactivity”; for “QVQLQESGGGLVQAGGSLRLSCAASGSNFDTPTMGWYRQAPGKERELVASSAYDDNTYYADSVKGRFTISRYNAKNTVYLQRNSLKPGDTAVYYCAVTDRIYYYFVYWGQGTRVTVSS”, “high polyreactivity”.
Next, “QVQLQESGGGLVQAGGSLRLSCAASGTIFTARFMGWYRQAPGKERELVATITDGGNTNHADSVKGRFTISRDNAKNTVYLQMNSLKPEDAAVYYFAAGEVDNDTLLYWGQGSQVTVSS”: “low polyreactivity”.
Consider “QVQLQESGGGLVQAGGSLRLSCAASGTIFWLWAMGRYCQAPGQDRELVASISSGGTTYHADSVKGRFTISRDKAKNPVYRQMNSVKPEDTAVYYRAAFYVATAKLGYWGQGSQVTVSS”, for which the “polyreactivity (PSR sort gate)” value was “low polyreactivity”.
Next, “QVQLQESGGGLVQAGGSLRLSCAASGTIFYKDDMGWYRQAPGKEREFVAGIDRGGTTNCAGSVKGRFTISRDNAKNTVYLQMISLKPEDTAVYYCAAYYPDIYPFIYRGQGTQVTVSS”: “high polyreactivity”; “QVQLQESGGGLVQAGGSLRLSCAASGTILYSLGMGWYRQAPGKRREFVASITWGTTTNYAESVKGRFTISRDNAKNTVYPQMNSLKPEDTAVYDCAAPPFGDSSYHYWGQGTQVTVSS”: “low polyreactivity”; “QVQLQESGGGLVQAGGSLRLSCAASGTISDRAGMGWYRQAPAKNAIVATIDRGTNTNYADSVKGRFTISRDNAKNTVYLQMNSLKPEDTAVYNCAAVGRYYIYLDYWGQGTQVTVSS”: “low polyreactivity”.
As to “QVQLQESGGGLVQAGGSLRLSCAASGTISPLPAMGWYRQAPGKEREFVAGIDTGAITNYADSVKGRFTISRDNAKNTVYLQMNSLKPEDTAVYYCAVFQAAYDYYERYYTYWGQGTQVTVSS”, the “polyreactivity (PSR sort gate)” value is “low polyreactivity”.
For “QVQLQESGGGLVQAGGSLRLSCAASGTISPLPAMGWYRQAPGKEREFVPGIDTGAITNYADSVKGRFTISRDNAKNTVYLQMNSLKPEDTAVYYCAVFPAAYDYYERYYTYWGQGTQVTVSS” the value was “low polyreactivity”.
Regarding “QVQLQESGGGLVQAGGSLRLSCAASGTISTDSYMGWYRQAPGKERKFVASIGYGGITYYADSVKGRSTISRDSAKNTVYLQMNSLKPEDTAVYYCAVNSYYPDHYWYWGRGTQVTVSS”, the “polyreactivity (PSR sort gate)” value was “high polyreactivity”.
As for “QVQLQESGGGLVQAGGSLRLSCAASGTISTDSYMGWYRQAPGKESKFVATIGYGGITYYADSVKGRSTISRDSAKNTVYLQMNILKPEDTAVYYCAVNSYYPDHYWYWGRGTQVTVSS”, the “polyreactivity (PSR sort gate)” value is “high polyreactivity”.
Regarding “QVQLQESGGGLVQAGGSLRLSCAASGTISVHASMGWYRQAPGKERELVAGITDGANTYYADSVKGRFTISRDNSKNTVYLQMNSLIPEDTAVYYCAAYYGTEVHFTYWGQGTQVTVSS”, the “polyreactivity (PSR sort gate)” value is “low polyreactivity”.
With “QVQLQESGGGLVQAGGSLRLSCAASGTITVLYKMGWFRQAPGKEREFVASINYGTRTYYADSVKGRFTVSRDSAKNTVYLQMNSLKPEDTAVYYCAAAYRWQDVYRYWGQGTQVTVSS”, the “polyreactivity (PSR sort gate)” value is listed as “low polyreactivity”.
For “QVQLQESGGGLVQAGGSLRLSCAASGTITVLYKMGWFRQAPGKEREFVASINYGTSTYYADSVKGRFTVSRDSAKNTVYLQMNCLKPEDTAVYYFAAAYRWQDVYRYWGQGTQVTVSS” the value was “low polyreactivity”; for “QVQLQESGGGLVQAGGSLRLSCAASGYIFPRIYMGWYRQAPGKEREFDAGISYDAITNYADSVKGRFTISLDNAKNTVYLQMNSLKPEDTAVYYCAVSYYGTPLFTYWGQGTQVTVSS”, “high polyreactivity”; for “QVQLQESGGGLVQAGGSLRLSCAASGYISHADEMGWYRQAPGKEHELVASISNGGSTNYADSVKGRFTISRDNAKNTLYLQMNSLKSEDTAVNYCAAWTGQVDIHYYWGHGTQVTVSS”, “low polyreactivity”.
For “QVQLQESGGGLVQAGGSLRLSCAASGYISIGRRMGWYRQAPGKERELVAGINGGGSTNYADSVKGRSTISRDNAKNTVYLQMNSLKPEDTAVYYCAAYVYDYDWYKYWGQGTQVTVSS” the value was “high polyreactivity”.
For “QVQLQESGGGLVQAGGSLRLSCASSGSIFWVWRMGWYCQAPGKEREFVAGIGLGATTNYADSVKGRFTISRDNAKNTVYLQMNSLKPGDTAVYYCATVGYYKGNQVLPAKDGDSWGQGTQVTVSS” the value was “high polyreactivity”; for “QVQLQESGGGLVQAGGSLRLSCPSSGNISIKLQMGWYRQAPGKERELVATINLGAITYYADSVKGLITISRDNAKNTVYLQVNSLKPEDTAVYYCNAQSRTWRKLGYWGQGTQVTVSS”, “low polyreactivity”.
With “QVQLQESGGGLVQAGGSLRLSCSATGTIFTDRFMGWYRQAPGKERELVAGISPGTSTNYADSVKGRFTISRDNAKNTVYLQMNSLKPEDTAVYYCAADWSTGNTLPYWGQGTQVTVSS”, the “polyreactivity (PSR sort gate)” value is on record as “high polyreactivity”.
Next, “QVQLQESGGGLVQAGGSLRLSSAASGTITVLYKMGWFRQPPGKQREFVASINYGTSTYYADSVKGRFTVSRDSAKKTVSLQMNSLKPEDTAVYYCAAAYRWQDVYRYWGQGTQVTVSS”: “low polyreactivity”; “QVQLQESGGGLVQAGGSLRLTCAASGSIFLNSEMGWYRQAPGKERELVAAIATGTSTNYADSVKGRFTISRDNAKNTVYLQMNSLKPEDTAVYYCATYHYWGQGTQVTVSS”: “low polyreactivity”; “QVQLQESGGGLVQAGGSLRMSCAASGKIFDADIMGWYRQAPGKERELVASNTDGRRTNYADSVKGRYTISRDSEKNTVYLQMNSLKAEDTAEYYCAAIAYPVVPTSFDYDSDYFHWGQGTQVTVSS”: “high polyreactivity”.
Next, “QVQLQESGGGLVQAGGSLRMSCAASGNIFDADIMGWYRQAPGKERELVASITDGRRTNYADSVKGRYTISRDSEKNTVYLQMNSLKPEDTAVYYCAAIAYPVVPTYFDYDSDYFHWGQGTQVTVSS”: “high polyreactivity”.
For “QVQLQESGGGLVQAGGSLRMSCAASGSIFSEANIGWYRQAPGKERELVATIGQGSTTNYADSVKGRFTISRDNAKNNVDLQLTSRKPEETAVYYCAVDTVDPVGFVYWGQGTQVTVRS” the value was “low polyreactivity”.
Take “QVQLQESGGGLVQAGGSLRQSCAASGNIFLGDTMGWYRPAPGKEREFVAGIARGGNPYYADSVKGRFTISRNNAKNTVYLQKNSLKPEDTAVHYCAVQRSHASDYNYWGQGTQVTVSS”: the “polyreactivity (PSR sort gate)” value is “low polyreactivity”.
For “QVQLQESGGGLVQAGGSLRQSCAASGYIFPYYSMGSYRQAPGKERGLVACIAAGTTTNYADSVKGRFTISRDNAKKSVYLQMNSLKPEDAAVYYCAALNAFNTGHWYWGQGTQVTVSS” the value was “low polyreactivity”; for “QVQLQESGGGLVQAGGSLRQSYAASGYIFPSLAMGWYRQAPGKEREFVAAIGRGSTNNYADSVKGRFTISRDNAKKTAYQQMNSLKPEDTAVYYCAAAASPLTRHLYWGQGTQVTVSS”, “low polyreactivity”.
For “QVQLQESGGGLVQAGGSLSCAASGNIFYIKYMGWYRQEPGKEREFVASIAHGTSTYYADSVKGLFTISRDNAKNTVYLQMNSLKPVDTAVYYCAAVTQSYYSYYYWGQGTQVTVSS” the value was “low polyreactivity”; for “QVQLQESGGGLVQAGGSLSLSCAASGSNFVSVTMGWYRQAHGKERELVASIGRGSTTNHADSVKGRFTISRDNAKNIVYLLMNSLKPEDTAVYYCAALESYGKYHGYWGQGTQVTVSS”, “low polyreactivity”; for “QVQLQESGGGLVQAGGSMRLSCAATGSISELRPMGWYSQAPGKERELVAGISTGGSTNYADSVKGRFTISRDNAKNTVFLQMNSLKPEDTAVYYCAAGSYGEGTYDYWGQGTQVTVRS”, “high polyreactivity”.
Turning to “QVQLQESGGGLVQAGGSPRLSCAASDNIFPDSVMCWYRQAPGKERELVATIGFGATTNSADSVKGRFTISRDNAKNTVYLQMNSLKPEDTAVYSCAADPLNYEYFCYWGQGTQVTVSS”, the “polyreactivity (PSR sort gate)” value was “low polyreactivity”.
For “QVQLQESGGGLVQAGGSPRLSCAASDNIFPDSVRCWYRQAPGKERELVATIGFGATTNYADSVKGRFTISRDNAKNTVYLQMNSLKPEDTAVYYCAADPLNYEYFCYWGQGTQVTVSS” the value was “low polyreactivity”; for “QVQLQESGGGLVQAGGSQRLSCAASGYIFYFQYMGWYRQAPGKELEFVAAISDGANTNYADSVKGRITISRDNAKNTEYLQMNSLKPEDTAVYYCAVYADENDYYIYWGQGTQVTVSS”, “low polyreactivity”.
For “QVQLQESGGGLVQAGGSQRLSCAASGYIIYFQYMGWYRQAPGKEREFVAAISDGANTNYADSVKGRFTISRDNAKNTEYLQMNSLKPEDTAVYYCAVYADENYYYIYWGQGTQVTVSS” the value was “low polyreactivity”; for “QVQLQESGGGLVQASGSPRLSCAASGNIFDADIMGWYRQAPGKQCELVASITDGGSTNYADSEKGRFTISSDNAKNTVYLQKNSLKPEDTAVYYCAAISYRDIPTYFDYDSDYFYWGQGTHVTVSS”, “high polyreactivity”; for “QVQLQESGGGLVQVGGSLRLSCAASGTIFNYGFLGRNRQAPGKERELVASINLGGITNYADSVKGRFTISRDNAKNTVYLQMISLKPEDTAVYYCAAYVVTGQNYGYWGQGTQVTVSS”, “low polyreactivity”.
